In the supplement of paper PMC9732359:
± gives the uncertainty stated by the source.

Experiment: protein stability index of a GFP-peptide fusion (yeast GPS) (PSI 1-4); higher = more stable; sorted into four equal gates, so the index is relative within each strain
How it was run: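 Plasmids isolated from each sorting gate were PCR-amplified and Illumina-sequenced, and barcodes assigned the reads to strains. The gates, four of equal size, were set by GFP/Cherry fluorescence ratio on mid-log cultures in leucine-free medium. These cultures were yeast carrying a pooled library of tiled 17-residue yeast protein peptides fused downstream of GFP on a plasmid that also expresses Cherry. The protein stability index is the sum of every gate's read frequency times its gate number.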

Sequence	protein stability index (doa10∆)	protein stability index (pdr5∆)	protein stability index (san1∆)	protein stability index (ubr1∆)
IWRKVPGDVLDKDAFIP [SNU114]	3.6 ± 0.28			
MSQGQSKKLDVTVEQLR [NSL1]	2.64 ± 0.075	2.74 ± 0.075	2.7 ± 0.056	2.78 ± 0.075
NDDSSSMNATMRNFSKQ [YDL088C/ASM4]	2.76 ± 0.087	3.14 ± 0.11	2.71 ± 0.13	2.93 ± 0.091
LANEERLSNEMHALKNR [RGR1]	3.32 ± 0.12	3.42 ± 0.07	3.4 ± 0.059	3.66 ± 0.13
HILLTELLAYQFASPVR [FAS2]	1.81 ± 0.019	1.7 ± 0.018	1.81 ± 0.027	1.768 ± 0.017
LIVIDVVEGVTFVVEQL [SNU114]	1.57 ± 0.044	1.92 ± 0.061	2.56 ± 0.082	2.92 ± 0.04
QEQVQDYVNKTNSHLPA [FAS1]	2.52 ± 0.069	2.44 ± 0.1	2.62 ± 0.11	2.32 ± 0.064
SIGEPATQMTLNTFHFA [RPO21]	2.63 ± 0.091	3.04 ± 0.11	3.04 ± 0.15	2.75 ± 0.12
LDKLNCAINSKSRGSDL [RRP6]	2.81 ± 0.049	2.93 ± 0.042	2.79 ± 0.042	2.94 ± 0.032
KDLEIRKLEISSRFKHR [GAL11]	2.87 ± 0.099	2.76 ± 0.081	3.16 ± 0.13	2.81 ± 0.053
GGSGNGDDVVNDVQGID [RPP1]	3.54 ± 0.25	3.55 ± 0.25	3.27 ± 0.079	3.1 ± 0.1
VMDTIQEQITLYDHWDK [SSN8]	3.14 ± 0.12	2.96 ± 0.09	2.63 ± 0.095	2.82 ± 0.068
GISKKTRIAGVVYHPSN [RPS8A]	2.53 ± 0.03	2.456 ± 0.024	2.41 ± 0.032	2.403 ± 0.021
SSIDRGFGRCETRRKTT [RET1]	2.41 ± 0.071	2.38 ± 0.12	2.21 ± 0.13	2.52 ± 0.05
LASRNKWDDLNEQLTLL [RPN5]	2.99 ± 0.09	3.4 ± 0.072	3.26 ± 0.056	3.12 ± 0.047
SENHTESDAPPKSTAPI [YOR098C/NUP1]	2.75 ± 0.058	2.24 ± 0.054	2.51 ± 0.058	2.47 ± 0.06
FHILLKLILEWVAPQES [ECM29]		2.08 ± 0.27	1.53 ± 0.17	1.77 ± 0.14
FATNEERQMNFLTNELI [SWI3]	3.28 ± 0.1	2.32 ± 0.07	1.96 ± 0.14	2.62 ± 0.053
GGSFGNREEFINKLVKA [RPL7B]	3.01 ± 0.22			2.93 ± 0.078
LKFFLVDENETVLESLG [LIN1]	3.26 ± 0.27	2.94 ± 0.092	2.9 ± 0.18	3.04 ± 0.15
GYQWGEENKDIMNVLSE [PRP8]	2.8 ± 0.22			3.16 ± 0.24
NRRWTQRRGPLVVYAED [RPL4A]	2.44 ± 0.16	2.48 ± 0.17	2.12 ± 0.093	2.16 ± 0.1
GAHGNSDPVCLFVCNKD [POP3]	3 ± 0.098	3.37 ± 0.12	3.07 ± 0.084	2.8 ± 0.059
KPSFSFPGKPVDVQAPT [YOR098C/NUP1]	2.72 ± 0.056	2.88 ± 0.094	3.12 ± 0.055	2.77 ± 0.068
QIQFTPLIKKIKYEPRF [SMC3]	2.62 ± 0.061	2.52 ± 0.045	2.83 ± 0.09	2.43 ± 0.062
PFSLTYVRTEETDGKHG [YMR129W/POM152]	3.13 ± 0.14	3.28 ± 0.096	3 ± 0.074	3.19 ± 0.069

Sequence	protein stability index (doa10∆)	protein stability index (pdr5∆)	protein stability index (san1∆)	protein stability index (ubr1∆)
TRGGASALIENNLFRII [YJL039C/NUP192]	2.48 ± 0.048	2.41 ± 0.052	2.41 ± 0.052	2.7 ± 0.041
LNYGVYLNGTLIGSIRF [RET1]	1.43 ± 0.07	2.29 ± 0.097	2.53 ± 0.088	2.71 ± 0.088
HNHDTGCDENDSTVNKS [YDL088C/ASM4]	3.2 ± 0.09	3.2 ± 0.079	3.3 ± 0.057	3.05 ± 0.068
RKASCIWLLSYIQYLGH [ECM29]	1.88 ± 0.06	2.15 ± 0.046	2.32 ± 0.054	1.96 ± 0.036
CIKKIMENNEPAMAMED [SRB8]	3.12 ± 0.072	3.15 ± 0.079	3.13 ± 0.059	3.08 ± 0.069
QVSEVDPGRYNKVCRIE [RPB8]	3.07 ± 0.13	3.04 ± 0.081	2.65 ± 0.084	2.93 ± 0.06
IESQNLDLIPHSSSVFK [SRB4]	2.46 ± 0.059	2.9 ± 0.053	2.55 ± 0.067	2.73 ± 0.038
DVIHFEDSSILQSIVNE [PCI8]	3.21 ± 0.089	3.06 ± 0.076	3.04 ± 0.05	3.47 ± 0.073
MSLVVQEQGSFQHILRL [RPS18A]	2.95 ± 0.14	2.83 ± 0.12	2.65 ± 0.1	2.92 ± 0.1
DLSGADIQAMCTEAGLL [RPT2]	2.73 ± 0.12	3.48 ± 0.13	3.46 ± 0.05	3.42 ± 0.062
RRLHDENLMVQRTCLMT [YCS4]	2.43 ± 0.064	2.44 ± 0.057	2.45 ± 0.058	2.24 ± 0.047
ILCIFEGEKCHPQDFGN [SEC65]	2.13 ± 0.059	2.39 ± 0.066	2.14 ± 0.087	2.44 ± 0.053
MGKGTPSFGKRHNKSHT [RPL37A]	3.24 ± 0.089	3.4 ± 0.067	3.1 ± 0.077	3.02 ± 0.069
KSSDSNDSNPSFSFSIP [YLR335W/NUP2]	2.62 ± 0.046	2.53 ± 0.048	2.31 ± 0.058	2.81 ± 0.034
LKVTKKHGAKKVAKRTK [RPL27A]	3.37 ± 0.13	3.54 ± 0.17	3.39 ± 0.11	3.18 ± 0.13
SGYGKRKGTREARLPSQ [RPL19A]		3.29 ± 0.28		3.49 ± 0.26
ELRYQSHILNSHSLALN [DSN1]	2.29 ± 0.066	2.66 ± 0.058	2.63 ± 0.057	2.66 ± 0.049
RILQQLKLDKIIHVLTT [RGR1]	1.64 ± 0.068	1.21 ± 0.053	1.72 ± 0.15	2.22 ± 0.073
DEEAAGASTVMKTKTIN [PRP8]	3.34 ± 0.089	3.12 ± 0.071	3.28 ± 0.063	3.19 ± 0.061
VPPVENFPVRQWSIEIV [TAF14]	3.15 ± 0.064	2.55 ± 0.053	3.2 ± 0.042	2.82 ± 0.051
RDREPKEPVALIETVRQ [RPN2]	3.32 ± 0.081	3.47 ± 0.12	3.12 ± 0.079	3.34 ± 0.071
GVCNHAFHLHCINKWIK [HRT1]	1.77 ± 0.045	2.49 ± 0.04	1.64 ± 0.068	2.16 ± 0.042
KMENLMRLIKRVRAESL [YJL039C/NUP192]	1.49 ± 0.083	1.19 ± 0.1	1.32 ± 0.23	1.12 ± 0.099
GPVGKECADLWPRVASN [RPL23A]	3.2 ± 0.13	3.3 ± 0.11	3.17 ± 0.1	3.23 ± 0.057
LESINEGNQIIVFVHSR [BRR2]	1.76 ± 0.073	1.88 ± 0.064	1.62 ± 0.066	1.76 ± 0.071
